Results: paper PMC4041422, “Rapid kinetics of iron responsive element (IRE) RNA/iron regulatory protein 1 and IRE-RNA/eIF4F complexes respond differently to metal ions”

T1: IRP1 (iron regulatory protein 1) (rabbit, UniProt Q01059 1-889)
T1 sequence: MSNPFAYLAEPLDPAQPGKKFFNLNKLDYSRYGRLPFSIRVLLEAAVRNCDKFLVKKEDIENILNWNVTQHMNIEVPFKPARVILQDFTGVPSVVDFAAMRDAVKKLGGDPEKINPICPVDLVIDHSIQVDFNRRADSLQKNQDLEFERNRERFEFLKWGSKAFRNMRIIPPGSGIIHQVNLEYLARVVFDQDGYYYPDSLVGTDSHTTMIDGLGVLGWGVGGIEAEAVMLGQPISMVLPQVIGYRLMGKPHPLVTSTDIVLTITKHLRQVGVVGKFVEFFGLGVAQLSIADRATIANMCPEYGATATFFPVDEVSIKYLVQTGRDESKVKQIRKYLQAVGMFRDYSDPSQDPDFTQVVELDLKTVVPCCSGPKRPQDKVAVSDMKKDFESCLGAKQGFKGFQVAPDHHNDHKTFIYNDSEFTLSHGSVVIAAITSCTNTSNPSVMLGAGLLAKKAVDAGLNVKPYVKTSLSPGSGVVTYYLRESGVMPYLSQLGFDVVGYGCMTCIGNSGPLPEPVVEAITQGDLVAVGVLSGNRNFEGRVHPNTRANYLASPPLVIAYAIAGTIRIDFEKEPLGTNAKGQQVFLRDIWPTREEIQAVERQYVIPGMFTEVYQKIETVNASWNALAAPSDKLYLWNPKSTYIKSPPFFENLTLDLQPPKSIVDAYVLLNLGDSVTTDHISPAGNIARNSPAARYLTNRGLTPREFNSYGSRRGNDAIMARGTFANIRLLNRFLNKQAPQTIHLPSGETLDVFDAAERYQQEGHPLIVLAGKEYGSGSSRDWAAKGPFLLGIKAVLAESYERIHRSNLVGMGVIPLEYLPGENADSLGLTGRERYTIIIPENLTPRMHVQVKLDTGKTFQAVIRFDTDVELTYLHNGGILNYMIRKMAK


Experiments:
Conditions in all cases: protein: recombinant; tags: Ni-chelate purified; hairpin with mid-helix bulge C and hexaloop
[1] = molecular target: T1, IRP1 (iron regulatory protein 1); test: stopped-flow fluorescence anisotropy (koff/kon); 5 uM Mn2+; kon 35.2, koff 7.6; 40 mM HEPES pH 7.2, 100 mM KCl, 1 mM MgCl2 (Methods; not listed in the Figure 2 legend), 5% glycerol, 2% 2-mercaptoethanol, 25 C; RNA 50 nM with IRP1 0.05-1 uM; eIF4F 0.1 uM with RNA 0.1-0.5 uM
[2] = molecular target: T1, IRP1 (iron regulatory protein 1); test: stopped-flow fluorescence anisotropy (koff/kon); 150 mM KCl; kon 39, koff 7.4; 40 mM HEPES pH 7.2, 100 mM KCl, 1 mM MgCl2 (Methods; not listed in the Figure 2 legend), 5% glycerol, 2% 2-mercaptoethanol, 25 C; RNA 50 nM with IRP1 0.05-1 uM; eIF4F 0.1 uM with RNA 0.1-0.5 uM
[3] = molecular target: T1, IRP1 (iron regulatory protein 1); test: stopped-flow fluorescence anisotropy (koff/kon); no Mn2+, 100 mM KCl; kon 51.5 uM-1 s-1, koff 7.0 s-1; 40 mM HEPES pH 7.2, 100 mM KCl, 1 mM MgCl2 (Methods; not listed in the Figure 2 legend), 5% glycerol, 2% 2-mercaptoethanol, 25 C; RNA 50 nM with IRP1 0.05-1 uM; eIF4F 0.1 uM with RNA 0.1-0.5 uM
[4] = molecular target: T1, IRP1 (iron regulatory protein 1); test: stopped-flow fluorescence anisotropy (koff/kon); 150 mM KCl; kon 209, koff 6.3; 40 mM HEPES pH 7.2, 100 mM KCl, 1 mM MgCl2 (Methods; not listed in the Figure 2 legend), 5% glycerol, 2% 2-mercaptoethanol, 25 C; RNA 50 nM with IRP1 0.05-1 uM; eIF4F 0.1 uM with RNA 0.1-0.5 uM
[5] = molecular target: T1, IRP1 (iron regulatory protein 1); test: stopped-flow fluorescence anisotropy (koff/kon); no Mn2+, 100 mM KCl; kon 400 uM-1 s-1, koff 6.2 s-1; 40 mM HEPES pH 7.2, 100 mM KCl, 1 mM MgCl2 (Methods; not listed in the Figure 2 legend), 5% glycerol, 2% 2-mercaptoethanol, 25 C; RNA 50 nM with IRP1 0.05-1 uM; eIF4F 0.1 uM with RNA 0.1-0.5 uM
[6] = molecular target: T1, IRP1 (iron regulatory protein 1); test: stopped-flow fluorescence anisotropy (koff/kon); 5 uM Mn2+; kon 176, koff 9.7; 40 mM HEPES pH 7.2, 100 mM KCl, 1 mM MgCl2 (Methods; not listed in the Figure 2 legend), 5% glycerol, 2% 2-mercaptoethanol, 25 C; RNA 50 nM with IRP1 0.05-1 uM; eIF4F 0.1 uM with RNA 0.1-0.5 uM

Binder | Kd [1] | Kd [2] | Kd [3] | Kd [4] | Kd [5] | Kd [6]
CCUCAUCUUUGUCAGUGCACAAAAUGGCG (structured_RNA) [ACO2 IRE-RNA, fluorescein labeled (FIACO2 IRE-RNA)] | 217 ± 7.6 nM | 190 ± 9 nM | 136 ± 2.9 nM | – | – | –
GUUCUUGCUUCAACAGUGUUUGAACGGAAC (structured_RNA) [FRT IRE-RNA, fluorescein labeled (FIFRT IRE-RNA)] | – | – | – | 30 ± 0.7 nM | 15.5 ± 0.5 nM | 55 ± 2.7 nM
